Reference: paper PMC12051055, “Spectroscopy and crystallography define carotenoid oxygenases as a new subclass of mononuclear non-heme Fe^II enzymes” (The Journal of Biological Chemistry, 2025)

Substrate: CC=Cc1ccc(O)c(OC)c1
Test: steady-state kinetics of cleavage to vanillin by purified enzyme (apparent Km)
Type: biochemical, Neurospora crassa
Conditions: Fe(II)
Source text: steady-state kinetics of cleavage to vanillin by purified enzyme (apparent Km) on CAO1 (Neurospora crassa carotenoid oxygenase 1) | wildtype and T151V steady-state kinetics toward isoeugenol

B1: CAO1 (Neurospora crassa carotenoid oxygenase 1) (Neurospora crassa OR74A) (protein)
chain: MAEYVFSDAPKDSHGNGVKDAVPGKQPEELPPAPRYFQGENTAGFMRPVRFEGDITNLEVVGEIPKSIEGTFYRVMPEPHLPSFIPNDPWFNGDGNISGFYFKDGHVDLKQRYVRTEKFVREAEARRSLLGKYRNRYTDLVEFKIRSTANTNIVYWRGQLLALKEDSPPYAMDPETLETFGVYDFDGQLPSLTFTAHPKFDPVTREMVCFGYEAKGDGTRDICYYSFGPDGKIAETVWLVSPVCGMIHDFAVTENFVIFPIIPLVCDVERMKQGGDHWQWDYSIPMYIGVLPRRGAQGSDVKWFEAPHGFAGHVANAFEDDKGHIQLQMAYAKDNVFFWWPDANGKGPRPGEVEAHFANFVLDYQSDKLPLAEPTYLVDDDMEFPRIDDRVATRKHKHTFFCIFDRKPGVTDFEFVMPRAGGGAPMSNGLAHLNHETGDIQRYLPGPRKLTGECIFIPRNSEAAEGDGYVMVLLANYEDMCSELAVLDTKDLTNEVALIKLPVRLRPGLHGNWVDKSDVDGHPAPL
  Km: 86.26 ± 13.49 µM
